We go through 41 sequences from the nanobody polyreactivity screen of Harvey et al. (2022).

The series is described as follows: yeast display, Sf9 membrane polyspecificity reagent, FACS + sequencing; frameworks hold sequencing errors. Summed up: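 Polyreactivity labels are assigned by the sorting gate from which each nanobody was recovered. The gates were low and high (top ~1%), set on anti-HA fluorescence for expression and streptavidin fluorescence for reagent binding. Before sorting, galactose-induced (36–48 hours) yeast display cells were stained for 1 hour at 4 °C with 10% biotinylated, detergent-solubilized Sf9 membrane reagent.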
On to “QVQIVESGGGLVHAGGSLRLSCAASGSIYKRYAMGWYRQAPGKERELVAAIRWSGGSTYYADSVKGRFTISRDNAMNTVFLQMNSLKPEDTAVYYCARDGWGRLYGMGYWGQGTQVTVSS”, for which the “polyreactivity (PSR sort gate)” value is on record as “low polyreactivity”.

Turning to “QVQIVESGGGLVPAGCSLRLICAASGFTYALYAMGWYRQAPGKETELVAANTYRGGSTYDADSVKWRFTISRDNAKNTVYLQLISLKPEDTAVYYCNAGGLWFPGVPDYDYWVQGTQVTVSS”, the “polyreactivity (PSR sort gate)” value is given as “high polyreactivity”.

With “QVQIVESGGGLVQAAGSLRLSCAASGRTFGYYAMGWYREAPGKEREMVAAITSCGRNTYYADTVKGRFTISRDNAKNNVYLQMNRLKPEDTAVYYCNTVYHAYWGKCVNYWGQGTQVTVSS”, the “polyreactivity (PSR sort gate)” value is reported as “high polyreactivity”.

With “QVQIVESGGGLVQAGGILRLSCAASGRIFWRNAMGWYRQAPGKEREFVAAITYTAGRTYYADSVKGRFTISRDNSKITVYLQMNSLKPEDTAVYYCAAGSRRPGGTGYDHWVQGTQVTVSS”, the “polyreactivity (PSR sort gate)” value is listed as “low polyreactivity”.

Take “QVQIVESGGGLVQAGGILRLSCAASGRIFYTNAMGWYRKAPAKERELVAAIDNSDSTTYYADSVKWRYTISRDNAKNTVYLQMNSLKPEDTAVYYCAAESYLYTVTFEYWGQGTQVTVSS”: the “polyreactivity (PSR sort gate)” value is “high polyreactivity”.

As for “QVQIVESGGGLVQAGGSLPLSCADYGLIFPDYAMGCYRQAPGKEREFVASIWRGGTTYYADSVKGRFTISRDNAKNTFYFKINSLKPEDTAVYYCASRYFHRGLVFPFTKYDYWGLGTQVTVSS”, the “polyreactivity (PSR sort gate)” value is reported as “high polyreactivity”.

On to “QVQIVESGGGLVQAGGSLRISCAASGRTFYWNAMGWNREAPGKEMELVSAISDGGGSTYYADSVKGRFSISRDNAKNTVYLQMNSLKPEDTAVYYCNTPDNQDKPYPGYDYWGQGTQVTVSS”, for which the “polyreactivity (PSR sort gate)” value is given as “low polyreactivity”.

Regarding “QVQIVESGGGLVQAGGSLRLRCAASGRTFRDNAMGWSRQAPGKERELVAAIDIDSSTYYADSVKGRFTISRDNAKNTVYLQMISLKPEDTAVYYCAAESYHDGIGFPDYEYWGQGTQVTVSS”, the “polyreactivity (PSR sort gate)” value is recorded as “low polyreactivity”.

As to “QVQIVESGGGLVQAGGSLRLSCAASGFIFGPYAMGWYRQAPGKERELVAAMSRSGGDTYYADSVKGRFTISRDFEKNTVYLQMNSLKPEDTAVYYCAAVGKYSAYNYWGQGTQVTVSS”, the “polyreactivity (PSR sort gate)” value is reported as “high polyreactivity”.

“QVQIVESGGGLVQAGGSLRLSCAASGFIFGQYAMGWYRQAPGKERELVAAISSVGTTNYADSVKGRFTISRDNAKNTVYLQMNSLKPEDTAVYYCNAPVFYYWDYSYFPYEVDYWGQGTQVTESS”: the “polyreactivity (PSR sort gate)” value is given as “low polyreactivity”.

“QVQIVESGGGLVQAGGSLRLSCAASGFIFWFNAMGWYRQAPGKERELVATISWSDTSTYYAVSVKGRFTISRDNAKNTVYLQMNSLKPEDTAVYYFATDASETSLPEYYWGQGTQETVSS”: the “polyreactivity (PSR sort gate)” value is given as “low polyreactivity”.

Consider “QVQIVESGGGLVQAGGSLRLSCAASGFTCRGNAMGWYRQAPGKERELVATISYNAGSTYYADAVKGRFTISRDNAKNTVYFQMNSLNPEDTAVYYCAVELDSEPDYEPWTEYDYWGQGTQVTVSS”, for which the “polyreactivity (PSR sort gate)” value is given as “low polyreactivity”.

With “QVQIVESGGGLVQAGGSLRLSCAASGFTIDQYAMGWYRQAPGKERELVAAISWRGGSTYYADSVKGRFTISRDNAKNTVYLQMNSLKPEDTAVYYCNGYSPYHAGVDYGYWGQGTQVTVSS”, the “polyreactivity (PSR sort gate)” value is “high polyreactivity”.

As for “QVQIVESGGGLVQAGGSLRLSCAASGLIFDANAMGWYRQAPGKERELVAAISNGDSTYYADSVKGRFTISRDNAKNTVYLQMNSLKPEDTAVYYCNARIIYRKWLLRSGTFNYWGQGTQVTVSS”, the “polyreactivity (PSR sort gate)” value is listed as “low polyreactivity”.

Regarding “QVQIVESGGGLVQAGGSLRLSCAASGLTFAYYAMGRYRQAPGKERELVAAISYSGGSTYYADSVKGRFTISRDNAKITVYLQMNSLKPEDTAVYYCNAYSRKTPHLYYYWGQGTQVTVSS”, the “polyreactivity (PSR sort gate)” value is recorded as “high polyreactivity”.

For the sequence “QVQIVESGGGLVQAGGSLRLSCAASGRIFGYNAMGWYRQAPGKERELVAAISNTGGSTYYADSVKGRFTISRDNAKNTVYLQMNSLKPEDTAVYYCNASGRRVQIWEGDYWGHGTQVTVSS”, the “polyreactivity (PSR sort gate)” value is “high polyreactivity”.

As for “QVQIVESGGGLVQAGGSLRLSCAASGRIFTYNAMGWSRQAPGKERELVAAITRGGTTNYADSVKVRFTISRDNAKNTVYLQMNSLKPEDTAVSYCARAGAHPWWSRSTMYYWGQGTQVTVSS”, the “polyreactivity (PSR sort gate)” value is on record as “low polyreactivity”.

Turning to “QVQIVESGGGLVQAGGSLRLSCAASGRIFVRNAMGWYRQAPAKERELVADITNGGSTNYADSVKGRFTISRDNEKNTVYLQMNSLKPEDTAVYYCAADSLGVYDGDYWGQGTQVTVSS”, the “polyreactivity (PSR sort gate)” value is on record as “low polyreactivity”.

On to “QVQIVESGGGLVQAGGSLRLSCAASGRIFYNYAMGWNRQAPGKERELVAAISGSGGSTYYADSVKGRFTISRDNAKNTVYLQMNSLKPEDTAVYYCSTSGPQYYSRNFDYWGQGTQVTVSS”, for which the “polyreactivity (PSR sort gate)” value was “low polyreactivity”.

For the sequence “QVQIVESGGGLVQAGGSLRLSCAASGRILVPYTMGWYRQAPGKERELVAAITIGGRTTYADSVKGRFTISRDNAKNTVYLQMNSLKPEDTAVYYCAKRDWRYEWYGYDYWGQGTQVTVSS”, the “polyreactivity (PSR sort gate)” value is “low polyreactivity”.

For “QVQIVESGGGLVQAGGSLRLSCAASGRNFGANAMGWYRQAPGKERELVASISSSGSRTYYAVSVKGRFTISRDNAKNTVSLQMNSLKPEDSAVYYCAARYWIYRSEYDYWGQGTQVTVSS”, the “polyreactivity (PSR sort gate)” value is “high polyreactivity”.

Turning to “QVQIVESGGGLVQAGGSLRLSCAASGRTFTYYAMGWYRQAPGKERELVARIRSGGSTYYADSVKGRFTISRDNEKNTVYLQMNSLKPEDTAVYYCNADRRSAGLYNYWGQGTQVTVSS”, the “polyreactivity (PSR sort gate)” value was “low polyreactivity”.

For “QVQIVESGGGLVQAGGSLRLSCAASGRTFYSYAMGWYRQAPGKERELVAAIRWPGVRTYYADSVKGRFTISRDNAKNSFYLQMNSLKPEDTAVYYCAVYRYSGKGYRGPRDYWGQGTQVTVSS”, the “polyreactivity (PSR sort gate)” value was “high polyreactivity”.

Consider “QVQIVESGGGLVQAGGSLRLSCAASGRTIYYYTMGWYIQAPGKERELVAAITHGGSTYYADSVKGRFTISRDNAKNTVYLQMNSLNPEDTAVYYCNAVYDYPYEYWGQGTQVTVSS”, for which the “polyreactivity (PSR sort gate)” value is on record as “high polyreactivity”.

Turning to “QVQIVESGGGLVQAGGSLRLSCAASGRTLALYTMGWYRQAPGKERELVAAINWSGTSTYYADSVKGRNTISRDNAKNTVYLQINILKPEDTAVYYCNADGSAYIEDGYDYWGQGTQVTVSS”, the “polyreactivity (PSR sort gate)” value was “low polyreactivity”.

As for “QVQIVESGGGLVQAGGSLRLSCAASGRTLGFYAMGWYRQAPGKEREFVAAISSSVGRTYYADSVKGRFTISRDNAKNTVYLHMNRLKPEDTAVYYCAAKVSAWKKKSEMNYWGQGTQVTVSS”, the “polyreactivity (PSR sort gate)” value is recorded as “high polyreactivity”.

Turning to “QVQIVESGGGLVQAGGSLRLSCAASGRTLSYYAMGWYRQAPGKEREFVAAITGSGGSTYYADSVKGRFTISRDNAKNYVYFQMNSLKPEDTAVYYCNAKGLGVFTVEYYYWGQGTQVTVSS”, the “polyreactivity (PSR sort gate)” value was “low polyreactivity”.

Take “QVQIVESGGGLVQAGGSLRLSCAASGSIFDDYAMGWYRQAPGKERELVAAISSGVSTDYADSVKGRFTISRDNAKNTVYLQMYSLKPEDTAVYYCAADDQYRVTLGYDYWGQGTQVTVSS”: the “polyreactivity (PSR sort gate)” value is given as “low polyreactivity”.

Regarding “QVQIVESGGGLVQAGGSLRLSCAASGSIFFIYGMGWYRQAPVKERELVARIRVSGDSTYYADSVKGRFTISRDNAKNTVYVQMNSLKPVDTAVYYCNARSLWGYGYWGQCTQVTVSS”, the “polyreactivity (PSR sort gate)” value is given as “high polyreactivity”.

Consider “QVQIVESGGGLVQAGGSLRLSCAASGSIFGANDMGWYRQAPGKERELVAAISTRGGRTYYADSVKGRFTISRDNEMNTVYLHMNSLKPEDTAVYYCDTSGGRPYKYEYWGQGTQVTVSS”, for which the “polyreactivity (PSR sort gate)” value is given as “high polyreactivity”.

“QVQIVESGGGLVQAGGSLRLSCAASGSIFSGYVMGWYRQAPGKERELVAAITWSGGRTYYADSVKGRFTISRDNAKNTVYLQMNSLKPEDTAVYYCAKRKIKSSGYYYWGQGTQVTVSS”: the “polyreactivity (PSR sort gate)” value is “high polyreactivity”.

Consider “QVQIVESGGGLVQAGGSLRLSCAASGSIFSVYAMGWYRQAPGKERELVAGINRRTGITYYADSVKGRFTISRDNAKNTVYLQMNSLKPEDTAVYYCAADPYVKYNYWGQGTQVTVSS”, for which the “polyreactivity (PSR sort gate)” value was “low polyreactivity”.

On to “QVQIVESGGGLVQAGGSLRLSCAASGSIFTYNAMGWYRQAPGKERELVAAISYSGVRTYYADSVKGRFTISRDNAKNTVYLQMNRLKPVDTAVYYCNTRYPYSVLKYGYWGQGTQVTVSS”, for which the “polyreactivity (PSR sort gate)” value is reported as “high polyreactivity”.

With “QVQIVESGGGLVQAGGSLRLSCAASGSTFGYYAMGWYRQAPGKERELVAAISWRGGSTYYADSVKGRFTISRDNAKNTVYLQMHILKPEYTAVYYCAAAIFITGYGSYGYWGLGTQVTVSS”, the “polyreactivity (PSR sort gate)” value was “low polyreactivity”.

Regarding “QVQIVESGGGLVQAGGSLRLSCAASGSTFGYYTMGWYRQAPGKERELVAAISWSGGSTYYADSVKGRFTISRDNAKNTVYLQKNSLKPEDTAVYYCAALGYTYKYYSYYWGQGTQVTVSS”, the “polyreactivity (PSR sort gate)” value is “high polyreactivity”.

On to “QVQIVESGGGLVQAGGSLRLSCAASGSTFKRYAMGWYRQAPGKERELVAAITWRGGSTYYADSVKGRFTISRDNAKNTVYLQMNSLKPEDTAVYYCAARANYFGWPKSYYYWGQGTQVTVSS”, for which the “polyreactivity (PSR sort gate)” value is “high polyreactivity”.

For “QVQIVESGGGLVQAGGSLRLSCAASGSTFYYNTMGWYRQAPGKERELVAAISWRRVSTYYADSVKGRFTISRDIAKNTVYFQMNSLKPEDTAVYYCNAVHHYPEHIGGGYWGQGSQVTVSS”, the “polyreactivity (PSR sort gate)” value was “low polyreactivity”.

In the case of “QVQIVESGGGLVQAGGSLRLSCAASGSTSTLNAMGWYRQAPGTERELVAAISRSGTSTYFADSVKGRFTISRDNAKNTVYLQMNSLKPEDTADYYCAAYSYGPPYYYWGQGTQVTVSS”, the “polyreactivity (PSR sort gate)” value is on record as “high polyreactivity”.

Regarding “QVQIVESGGGLVQAGGSLRLSCAASGSTSVKYAMGWYRQAPGKERELVAAIRKRGDSTYYADSVKGRFTISRDYAKNTVYLQMNSLKPEDTAVYYFAAQYLRGRGYWGQGTQVTLSS”, the “polyreactivity (PSR sort gate)” value was “low polyreactivity”.

Take “QVQIVESGGGLVQAGGSLRLSCAAYGFTFYPYAMGWYRQAPGKERELVAAITRGGSTYYADSVKGRFTISRDNEKNTVYLQMNSLKPEDTAVYYCNAYWQGYGYDYWGQGTQVTVSS”: the “polyreactivity (PSR sort gate)” value is recorded as “low polyreactivity”.

As to “QVQIVESGGGLVQAGGSLRLSCADSGTTFRFNAIGWSRQAPGKERELVAAITGIGGITYYADSVKGRFTISRDNAKNTVYLQMNSLKPEDTAVYYCNAVAARYSVRNGYSTHYDYWGQGTQVTVSS”, the “polyreactivity (PSR sort gate)” value is “high polyreactivity”.
